Laboratory results taken from PMC8025885, “Cryo-EM of kinesin-binding protein: challenges and opportunities from protein-surface interactions” (Acta Crystallographica. Section D, Structural Biology, 2021).

How the values were obtained:
kinesin-binding protein [1] = target: T1, kinesin-binding protein (human, UniProt Q96EK5 1-621); test: pull-down; complex purified via IMAC using the 6xHis tag on the kinesin construct after incubation with a tenfold excess of KBP; SDS-PAGE of the purified complex; details: both partners purified
T1 construct: The 6xHis tag is thrombin-cleavable; also called KBP; KBP-full; source: E. coli Rosetta2, purified (IMAC, SEC)
T1 sequence (looked up): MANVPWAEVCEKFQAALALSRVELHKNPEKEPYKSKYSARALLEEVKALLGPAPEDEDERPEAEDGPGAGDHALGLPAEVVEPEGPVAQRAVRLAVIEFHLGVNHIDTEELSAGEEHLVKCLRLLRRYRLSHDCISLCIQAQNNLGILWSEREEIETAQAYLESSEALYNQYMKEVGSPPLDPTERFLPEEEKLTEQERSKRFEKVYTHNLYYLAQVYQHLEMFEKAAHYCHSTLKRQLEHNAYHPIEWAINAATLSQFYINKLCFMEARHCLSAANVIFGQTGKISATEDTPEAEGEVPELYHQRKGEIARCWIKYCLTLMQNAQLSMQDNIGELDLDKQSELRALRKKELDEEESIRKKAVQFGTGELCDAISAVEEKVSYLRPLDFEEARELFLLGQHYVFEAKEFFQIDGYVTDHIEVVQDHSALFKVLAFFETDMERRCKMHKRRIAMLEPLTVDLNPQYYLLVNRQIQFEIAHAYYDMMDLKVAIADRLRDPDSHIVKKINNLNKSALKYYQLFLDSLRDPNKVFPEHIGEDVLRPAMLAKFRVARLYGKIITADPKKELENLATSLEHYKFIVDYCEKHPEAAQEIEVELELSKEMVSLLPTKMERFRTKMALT

kinesin-binding protein [2] = target: T1, kinesin-binding protein; test: cryo-EM structure; rigid KBP-full–KIF15_MD6S subset of particles from GO-coated holey gold grids; 6.9 Å reconstruction; details: both partners purified

B1: human KIF1A motor domain and neck linker construct (domain or fragment, UniProt Q12756 1-362, looked up)
chain: MAGASVKVAVRVRPFNSREMSRDSKCIIQMSGSTTTIVNPKQPKETPKSFSFDYSYWSHTSPEDINYASQKQVYRDIGEEMLQHAFEGYNVCIFAYGQTGAGKSYTMMGKQEKDQQGIIPQLCEDLFSRINDTTNDNMSYSVEVSYMEIYCERVRDLLNPKNKGNLRVREHPLLGPYVEDLSKLAVTSYNDIQDLMDSGNKARTVAATNMNETSSRSHAVFNIIFTQKRHDAETNITTEKVSKISLVDLAGSERADSTGAKGTRLKEGANINKSLTTLGKVISALAEMDSGPNKNKKKKKTDFIPYRDSVLTWLLRENLGGNSRTAMVAALSPADINYDETLSTLRYADRAKQIRCNAVINE
notes: kinesin-3 KIF1A, human, motor domain and neck linker, residues 1-362; The HaloTag is TEV protease-cleavable; the printed size of the motor domain (about 40 kDa); source: E. coli BL21-Gold (DE3), purified (IMAC, SEC); not shown: His6, C-terminal, kept
kinesin-binding protein [1]
  binding result: binds

B2: cysteine-light human KIF15 motor domain and neck linker construct (domain or fragment, UniProt Q9NS87 1-375, looked up)
chain: MAPGSKTELRSVTNGQSNQPSNEGDAIKVFVRIRPPAERSGSADGEQNLSLSVLSSTSLRLHSNPEPKTFTFDHVADVDTTQESVFATVAKSIVESCMSGYNGTIFAYGQTGSGKTFTMMGPSESDNFSHNLRGVIPRSFEYLFSLIDREKEKAGAGKSFLSKCSFIEIYNEQIYDLLDSASAGLYLREHIKKGVFVVGAVEQVVTSAAEAYQVLSGGWRNRRVASTSMNRESSRSHAVFTITIESMEKCNEIVNIRTSLLNLVDLAGSERQKDTHAEGMRLKEAGNINRSLSSLGQVITALVDVGNGKQRHVSYRDSKLTFLLRDSLGGNAKTAIIANVHPGSRSFGETLSTLNFAQRAKLIKNKAVVNEDTQC
notes: kinesin-12 KIF15, human, motor domain and neck linker, residues 1-375, six of eight cysteines mutated to serine and two cysteines introduced; also called KIF15_MD6S; source: pET-21a vector, expressed and purified as described previously (Rosenfeld et al., 2005); not shown: His6, C-terminal, kept
kinesin-binding protein [2]
  binding result: binds
